Target: T1, NMDARs (Rattus norvegicus, UniProt Q00959+Q00960)
T1 construct: TRPM2 plasmid a gift 17928; 17924; 17925; host or cells: HEK293T
Test: NMDAR currents in HEK-293T cells transfected with NMDARs and TRPM2 (whole cell recording)
Assay type: cell-based, human
Conditions: 10 μM peptide overnight; 10 μM NMDA, -80 mV
Experimental: FIGS. 5G and 5H show the effects of TAT-EE3 on NMDAR currents in HEK-293T cells transfected with NMDARs and TRPM2. Transfected cells were treated with 10 μM TAT-EE3 or TAT-SC for overnight. FIG. 5G is representative NMDAR currents elicited at −80 mV by exposing to 10 μM NMDA for about 2 to 4 s.
were ordered from GenScript Biotech, and dissolved in PBS to make a stock concentration at 10 mM. HEK-293T cells or isolated neurons were treated with TAT-SC or TAT-EE3 at a concentration of 10 μM for at least 8 h prior to use. Mice were injected with TAT-SC or TAT-EE3 intraperitoneally (ip) at a dose of 100 nmol/kg.
Whole cell currents were recorded using an Axopatch 200B amplifier. Data were digitized at 10 or 20 kHz and digitally filtered offline at 1 kHz. Patch electrodes were pulled from borosilicate glass and fire-polished to a resistance of ˜3 MΩ when filled with internal solutions. Series resistance (Rs) was compensated up to 90% to reduce series resistance errors to <5 mV. Cells in which Rs was >10 MΩ were discarded (Du, J., Xie, J., and Yue, L. (2009). Modulation of TRPM2 by acidic pH and the underlying mechanisms for pH sensitivity. J Gen Physiol 134, 471-88).
For heterologous expression, transfected HEK-293 cells were identified by GFP fluorescence. […]

T1 sequence (Q00959 23-1464, other chains not shown): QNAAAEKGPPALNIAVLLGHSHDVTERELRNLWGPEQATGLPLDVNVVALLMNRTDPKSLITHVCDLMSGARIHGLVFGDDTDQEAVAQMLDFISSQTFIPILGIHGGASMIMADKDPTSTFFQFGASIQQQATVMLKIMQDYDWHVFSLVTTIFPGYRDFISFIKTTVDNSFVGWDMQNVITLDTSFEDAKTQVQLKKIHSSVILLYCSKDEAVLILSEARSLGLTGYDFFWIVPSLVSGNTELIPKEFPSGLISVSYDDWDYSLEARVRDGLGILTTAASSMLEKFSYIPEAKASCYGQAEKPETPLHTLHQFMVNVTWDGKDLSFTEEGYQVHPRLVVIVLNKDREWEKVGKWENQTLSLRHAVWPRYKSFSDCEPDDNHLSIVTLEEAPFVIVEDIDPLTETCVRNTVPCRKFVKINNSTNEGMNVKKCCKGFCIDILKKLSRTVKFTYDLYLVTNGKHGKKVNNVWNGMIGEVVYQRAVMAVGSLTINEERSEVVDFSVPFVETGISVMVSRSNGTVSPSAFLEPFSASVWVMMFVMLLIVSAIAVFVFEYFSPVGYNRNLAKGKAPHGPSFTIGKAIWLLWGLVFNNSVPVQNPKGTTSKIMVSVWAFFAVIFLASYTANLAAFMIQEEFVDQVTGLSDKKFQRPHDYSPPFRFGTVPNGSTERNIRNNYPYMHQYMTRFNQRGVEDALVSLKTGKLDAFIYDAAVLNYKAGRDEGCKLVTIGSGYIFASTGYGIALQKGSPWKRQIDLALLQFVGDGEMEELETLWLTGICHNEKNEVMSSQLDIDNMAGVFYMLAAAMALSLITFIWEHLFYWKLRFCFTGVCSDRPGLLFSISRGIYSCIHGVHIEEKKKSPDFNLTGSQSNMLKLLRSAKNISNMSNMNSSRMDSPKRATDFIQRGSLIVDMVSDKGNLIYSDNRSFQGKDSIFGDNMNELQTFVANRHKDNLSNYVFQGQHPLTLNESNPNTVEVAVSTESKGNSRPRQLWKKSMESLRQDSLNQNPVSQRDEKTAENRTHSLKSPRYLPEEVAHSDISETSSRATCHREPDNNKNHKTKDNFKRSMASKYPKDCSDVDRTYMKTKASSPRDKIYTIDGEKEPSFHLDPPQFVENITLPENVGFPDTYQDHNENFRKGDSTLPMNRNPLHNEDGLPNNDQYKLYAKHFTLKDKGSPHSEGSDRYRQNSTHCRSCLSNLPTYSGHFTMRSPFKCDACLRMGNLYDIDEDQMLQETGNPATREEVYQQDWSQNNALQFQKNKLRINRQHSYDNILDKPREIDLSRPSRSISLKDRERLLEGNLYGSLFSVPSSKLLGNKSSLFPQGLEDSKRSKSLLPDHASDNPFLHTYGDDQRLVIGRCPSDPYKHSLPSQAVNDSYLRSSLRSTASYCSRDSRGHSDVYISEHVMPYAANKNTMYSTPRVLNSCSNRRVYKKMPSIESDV
T1 sequence (Q00960 27-1482, other chains not shown): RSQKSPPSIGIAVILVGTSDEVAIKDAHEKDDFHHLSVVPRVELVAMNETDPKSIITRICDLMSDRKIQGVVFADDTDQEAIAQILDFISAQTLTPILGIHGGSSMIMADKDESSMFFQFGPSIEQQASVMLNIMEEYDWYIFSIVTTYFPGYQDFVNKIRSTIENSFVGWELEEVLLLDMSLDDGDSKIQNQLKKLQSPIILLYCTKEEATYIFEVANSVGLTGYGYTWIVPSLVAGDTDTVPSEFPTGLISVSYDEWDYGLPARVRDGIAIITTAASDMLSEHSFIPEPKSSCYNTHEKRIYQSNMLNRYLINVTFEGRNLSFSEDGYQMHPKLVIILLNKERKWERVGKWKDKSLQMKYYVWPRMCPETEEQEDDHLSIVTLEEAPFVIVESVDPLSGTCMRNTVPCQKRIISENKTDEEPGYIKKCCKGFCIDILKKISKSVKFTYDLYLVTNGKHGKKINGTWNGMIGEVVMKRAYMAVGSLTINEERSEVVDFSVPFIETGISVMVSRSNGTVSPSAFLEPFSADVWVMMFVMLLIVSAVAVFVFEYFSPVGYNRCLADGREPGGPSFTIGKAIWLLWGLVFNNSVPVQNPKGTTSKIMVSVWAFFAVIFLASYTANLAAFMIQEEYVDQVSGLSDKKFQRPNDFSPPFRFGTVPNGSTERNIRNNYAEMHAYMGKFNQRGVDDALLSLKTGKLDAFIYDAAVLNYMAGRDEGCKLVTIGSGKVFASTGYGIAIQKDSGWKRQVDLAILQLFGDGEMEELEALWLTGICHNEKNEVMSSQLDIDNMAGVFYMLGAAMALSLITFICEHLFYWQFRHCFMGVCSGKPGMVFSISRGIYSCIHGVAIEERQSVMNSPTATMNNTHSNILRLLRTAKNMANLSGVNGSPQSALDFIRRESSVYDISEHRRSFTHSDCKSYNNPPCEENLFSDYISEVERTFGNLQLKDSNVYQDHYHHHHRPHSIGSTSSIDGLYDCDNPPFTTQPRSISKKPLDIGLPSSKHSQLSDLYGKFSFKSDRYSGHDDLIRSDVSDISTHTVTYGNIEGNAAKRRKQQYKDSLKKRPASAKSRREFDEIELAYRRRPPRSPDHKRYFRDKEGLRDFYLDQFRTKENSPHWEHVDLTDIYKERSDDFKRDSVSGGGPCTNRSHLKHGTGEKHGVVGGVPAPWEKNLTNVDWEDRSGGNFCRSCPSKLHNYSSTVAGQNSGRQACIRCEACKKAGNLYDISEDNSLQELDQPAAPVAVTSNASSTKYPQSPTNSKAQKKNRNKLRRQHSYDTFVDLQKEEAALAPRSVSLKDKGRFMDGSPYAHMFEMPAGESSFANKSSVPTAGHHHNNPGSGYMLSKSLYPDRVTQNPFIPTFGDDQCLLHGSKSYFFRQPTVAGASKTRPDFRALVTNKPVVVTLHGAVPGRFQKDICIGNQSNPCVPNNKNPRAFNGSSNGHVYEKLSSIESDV

TAT-EE3: membrane permeable disrupting peptide, sequence YGRKKRRQRRREEDTDSSEEMLALAEE (SEQ ID NO: 4)
NMDAR current amplitude: significantly smaller than that in cells treated with TAT-SC
